Results on 9 molecules are retold here after US20040213795A1 (Pfizer, published 2004).

Assay [1] concerns the target T1, Murine PD-1 on cells (mouse, UniProt Q02242 25-288).
T1 construct: also called Cells expressing murine PD-1
T1 sequence: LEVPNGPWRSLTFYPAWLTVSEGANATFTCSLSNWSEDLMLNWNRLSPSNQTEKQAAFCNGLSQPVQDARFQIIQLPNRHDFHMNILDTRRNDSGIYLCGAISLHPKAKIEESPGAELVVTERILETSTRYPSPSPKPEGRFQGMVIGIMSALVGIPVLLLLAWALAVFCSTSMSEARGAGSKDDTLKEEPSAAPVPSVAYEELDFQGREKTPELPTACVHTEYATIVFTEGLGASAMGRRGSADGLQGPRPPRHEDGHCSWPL
The experiment in a line: scFv; inhibition of biotinylated murine PD-L1 fusion binding to cells expressing murine PD-1. As for the experimental part:
(§1) PD1-F2 scFv was produced and purified as described above. Cells expressing murine PD-1 were added at 10⁵ cells/well in a final volume of 100 μl to a poly-D-lysine-coated 96 well microtiter plate. Cells were centrifuged and washed twice in PBS, then blocked with 300 μl […] in PBS for 1 hour at room temperature. Blocked cells were washed three times in PBST, prior to addition of 25 μl/well of assay buffer (0.05% BSA, 0.05% Tween 20 in Dulbecco's PBS) or sample, followed by 25 μl of biotinylated murine PD-L1 fusion protein at 300 ng/ml. Binding of biotinylated PD-L1 fusion protein was detected with Amdex alkaline phosphatase and signals read as described above.

Assay [2] concerns the target T1, Murine PD-1 on cells. The experiment in a line: IgG; inhibition of biotinylated murine PD-L1 fusion binding to cells expressing murine PD-1. Here is the method: as §1, with “Cells” for “PD1-F2 scFv was produced and purified as described above. Cells”
Assay [3] deals with T2, Murine PD-1 fusion protein (mouse, UniProt Q02242 25-167).
T2 construct: also called mouse PD-1 fusion protein; not shown: fusion partner not described
T2 sequence: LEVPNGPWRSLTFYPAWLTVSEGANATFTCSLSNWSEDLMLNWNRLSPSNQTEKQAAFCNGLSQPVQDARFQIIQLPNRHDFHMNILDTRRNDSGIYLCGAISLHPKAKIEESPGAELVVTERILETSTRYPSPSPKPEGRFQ
The assay can be described thus: SPR (BIAcore 3000), murine PD-1 fusion immobilized on CM5 chip, antibody 7.81 to 125 nM in flow. As for the experimental part: The binding affinity of the anti-mouse PD1 antibody PD1-F2 was determined with a Surface Plasmon Resonance (SPR) system (BIAcore 3000) (Biacore, Piscataway, N.J.) using murine PD-1 fusion immobilized on a CM5 sensor chip. The concentration of PD1-F2 in the flow cell ranged from 7.81 to 125 nM, while the concentration of the anti-mouse PD1 antibody J43 (eBioscience, San Diego, Calif.) ranged from 25 nM to 500 nM.
(In general: Surface plasmon resonance follows binding to a sensor surface in real time, without labels.)

The target of assay [4] is T3, Human PD-1 fusion protein (human, UniProt Q15116 25-167).
T3 construct: also called Soluble PD-1 fusion protein; human PD-1/IgG chimera; not shown: fusion partner, called IgG in 'PD-1/IgG chimera'
The experiment in a line: IgG; inhibition of biotinylated human PD-L1 fusion binding to plate-bound human PD-1 fusion. Here is the method: Crude scFv-containing periplasmic extracts were obtained by subjecting the bacterial pellets from the overnight induction to osmotic shock. Pellets were resuspended in 20% (w/v) sucrose, 50 mM Tris-HCl, pH 7.5, 1 mM EDTA and cooled on ice for 30 minutes. Cellular debris was removed by centrifugation, and the scFv was purified by chromatography and buffer-exchanged into PBS. […] Binding of biotinylated PD-L1 fusion protein was detected with AMDEX-alkaline phosphatase, and the signal generated was measured by reading the absorbance at 405 nm using a microtiter plate reader. […]

The target in assay [5] is T3, Human PD-1 fusion protein. The assay can be described thus: scFv; inhibition of biotinylated human PD-L1 fusion binding to plate-bound human PD-1 fusion. As for the experimental part: ScFv production was induced by addition of 1 mM IPTG to exponentially growing cultures and incubation overnight at 30° C. Crude scFv-containing periplasmic extracts were obtained by subjecting the bacterial pellets from the overnight induction to osmotic shock. Pellets were resuspended in 20% (w/v) sucrose, 50 mM Tris-HCl, pH 7.5, 1 mM EDTA and cooled on ice for 30 minutes. Cellular debris was removed by centrifugation, and the scFv was purified by chromatography and buffer-exchanged into PBS. Purified scFv's (PD1-17, PD1-28, PD1-33, and PD1-35) were tested for the ability to inhibit the binding of biotinylated human PD-L1 fusion protein to human PD-1 fusion protein immobilized on plastic in a 96 well microtiter plate assay. Binding of biotinylated PD-L1 fusion protein was detected with AMDEX-alkaline phosphatase, and the signal generated was measured by reading the absorbance at 405 nm using a microtiter plate reader. Data was expressed as a percentage of the total binding and a titration of scFv concentrations was tested to establish clone potency as calculated IC₅₀ values.

T3 sequence (Q15116 other isoform, or with tags, fused parts or gaps): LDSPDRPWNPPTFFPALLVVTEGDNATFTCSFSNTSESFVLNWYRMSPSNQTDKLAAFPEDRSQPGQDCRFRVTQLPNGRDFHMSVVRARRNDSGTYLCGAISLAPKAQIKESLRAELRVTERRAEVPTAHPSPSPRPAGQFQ

B1: PD1-F2 scFv (scFv, V domains shown)
VH: EVQLVQSGGGVVQPGRSLRLSCAASGFTFSSYWMSWVRQAPGKGLEWVSAISGSGGSTYYADSVKGRFTISRDNSKNTLYLQMNSLRAEDTAVYYCAKENWGSYFDLWGQGTTVTVSS
VL: DIVMTQSPSTLSASVGDRVTITCRASQGISSWLAWYQQKPGRAPKVLIYKASTLESGVPSRFSGSGSGTDFTLTISSLQPEDFATYYCQQSYSTPWTFGQGTKLEIK
Broadly, the IC50 is the point on the concentration scale where inhibition reaches its midpoint. A low value points to higher potency. As to B1, in the assay with Murine PD-1 on cells [1], the IC50 came out at 28 nM.

B2: PD1-F2 IgG (antibody, V domains shown)
VH: EVQLVQSGGGVVQPGRSLRLSCAASGFTFSSYWMSWVRQAPGKGLEWVSAISGSGGSTYYADSVKGRFTISRDNSKNTLYLQMNSLRAEDTAVYYCAKENWGSYFDLWGQGTTVTVSS
VL: DIVMTQSPSTLSASVGDRVTITCRASQGISSWLAWYQQKPGRAPKVLIYKASTLESGVPSRFSGSGSGTDFTLTISSLQPEDFATYYCQQSYSTPWTFGQGTKLEIKR
notes: also called anti-mouse PD1 antibody PD1-F2
A word on the Kd: it is the constant that tells how readily two partners part at equilibrium. Lower therefore signals tighter binding. In the assay with Murine PD-1 on cells [2], B2 gave an IC50 of 1 nM. In assay [3], this molecule returned a Ka of 1.5e+08 M⁻¹ and a Kd of 6.7 nM.

B3: PD1-28 IgG (antibody, V domains shown)
VH: EVQLVQSGAEVKKPGASVKVSCKASGYRFTSYGISWVRQAPGQGLEWMGWISAYNGNTNYAQKLQGRVTMTTDTSTNTAYMELRSLRSDDTAVYYCARDADYSSGSGYWGQGTLVTVSS
VL: SYELTQPPSVSVSPGQTARITCSGDALPKQYAYWYQQKPGQAPVMVIYKDTERPSGIPERFSGSSSGTKVTLTISGVQAEDEADYYCQSADNSITYRVFGGGTKVTVL
B3: the IC50 in assay [4] amounted to 1.4 nM.

B4: PD1-28 scFv (scFv, V domains shown)
VH: EVQLVQSGAEVKKPGASVKVSCKASGYRFTSYGISWVRQAPGQGLEWMGWISAYNGNTNYAQKLQGRVTMTTDTSTNTAYMELRSLRSDDTAVYYCARDADYSSGSGYWGQGTLVTVSS
VL: SYELTQPPSVSVSPGQTARITCSGDALPKQYAYWYQQKPGQAPVMVIYKDTERPSGIPERFSGSSSGTKVTLTISGVQAEDEADYYCQSADNSITYRVFGGGTKVTVL
notes: not shown: scFv linker, order of the domains and vector tags (pCANTAB6 phagemid library)
As for B4, the IC50 in assay [5] was 560 nM.

B5: PD1-17 scFv (scFv, V domains shown)
VH: QVQLQESGPGVVKPSGTLSLTCAISGGSIGSGGSIRSTRWWSWVRQSPGKGLEWIGEIYHSGSTNYNPSLKSRVTISLDKSRNHFSLRLNSVTAADTAVYYCARQDYGDSGDWYFDLWGKGTMVTVSS
VL: NFMLTQPHSVSESPGKTVTISCTRSSGSIASNSVQWYQQRPGSSPTTVIYEDNQRPSGVPDRFSGSIDSSSNSASLTVSGLKTEDEADYYCQSSDSSAVVFGSGTKLTVL
notes: as for B4
In turn, B5 registered an IC50 in assay [5] of 726 nM.

B6: PD1-17 IgG (antibody, V domains shown)
VH: QVQLQESGPGVVKPSGTLSLTCAISGGSIGSGGSIRSTRWWSWVRQSPGKGLEWIGEIYHSGSTNYNPSLKSRVTISLDKSRNHFSLRLNSVTAADTAVYYCARQDYGDSGDWYFDLWGKGTMVTVSS
VL: NFMLTQPHSVSESPGKTVTISCTRSSGSIASNSVQWYQQRPGSSPTTVIYEDNQRPSGVPDRFSGSIDSSSNSASLTVSGLKTEDEADYYCQSSDSSAVVFGSGTKLTVL
notes: also called anti-PD-1 antibody PD1-17
In assay [4], B6 registered an IC50 of 2.5 nM.

B7: PD1-33 scFv (scFv, V domains shown)
VH: QVQLVQSGAEVKKPGASVRVSCKASGYTLTSYYIHWVRQAPGQGLEWMGIINPRGATISYAQKFQGRVTMTRDTSTSTVYMELRNLKSEDTALYYCATAGIYGFDFDYWGRGTLVTVSS
VL: QSALTQPASVSGSPGQSITISCTGTSNDVGGYNYVSWYQHHPGKAPKLIIYDVTNRPSGVSDRFSGSKSGNTASLTISGLLAEDEGDYYCSSYTIVTNFEVLFGGGTKLTV
Regarding B7, the IC50 in assay [5] turned out to be 74 nM.

B8: PD1-33 IgG (antibody, V domains shown)
VH: QVQLVQSGAEVKKPGASVRVSCKASGYTLTSYYIHWVRQAPGQGLEWMGIINPRGATISYAQKFQGRVTMTRDTSTSTVYMELRNLKSEDTALYYCATAGIYGFDFDYWGRGTLVTVSS
VL: QSALTQPASVSGSPGQSITISCTGTSNDVGGYNYVSWYQHHPGKAPKLIIYDVTNRPSGVSDRFSGSKSGNTASLTISGLLAEDEGDYYCSSYTIVTNFEVLFGGGTKLTV
In the case of B8, the IC50 in assay [4] came out at 1.8 nM.

B9: PD1-35 IgG (antibody, V domains shown)
VH: QVQLQESGPGLVKPSQTLSLTCTVSGGSISSGAYYWSWIRQHPGKGLEWIGYIYYNGNTYYNPSLRSLVTISVDASKNQFSLKLSSVTAADTAVYYCARASDYVWGGYRYMDAFDIWGRGTLITVSS
VL: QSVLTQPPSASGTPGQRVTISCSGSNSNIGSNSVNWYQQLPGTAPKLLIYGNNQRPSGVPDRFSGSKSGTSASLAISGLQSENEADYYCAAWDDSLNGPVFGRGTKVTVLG
notes: also called PD-35
For the molecule B9, the IC50 in assay [4] came out at 2.3 nM.
